Source: patent EP1007666B1

How the values were obtained:
[1] = biological target: recombinant soluble rat GDNFRα (rat) (UniProt Q62997); assay: binding experiments with biotinylated ligand, format not described
[2] = biological target: rat NTNRα, endogenous on embryonic rat spinal motoneurons (rat); assay: cell-based or functional assay
[3] = biological target: recombinant soluble rat GDNFRα (rat) (UniProt Q62997); assay: displacement of labelled rGDNF from soluble GDNFRα by 10 nM unlabeled NTN

Sequence of recombinant soluble rat GDNFRα (rat) (Q62997 25-430 limits assumed): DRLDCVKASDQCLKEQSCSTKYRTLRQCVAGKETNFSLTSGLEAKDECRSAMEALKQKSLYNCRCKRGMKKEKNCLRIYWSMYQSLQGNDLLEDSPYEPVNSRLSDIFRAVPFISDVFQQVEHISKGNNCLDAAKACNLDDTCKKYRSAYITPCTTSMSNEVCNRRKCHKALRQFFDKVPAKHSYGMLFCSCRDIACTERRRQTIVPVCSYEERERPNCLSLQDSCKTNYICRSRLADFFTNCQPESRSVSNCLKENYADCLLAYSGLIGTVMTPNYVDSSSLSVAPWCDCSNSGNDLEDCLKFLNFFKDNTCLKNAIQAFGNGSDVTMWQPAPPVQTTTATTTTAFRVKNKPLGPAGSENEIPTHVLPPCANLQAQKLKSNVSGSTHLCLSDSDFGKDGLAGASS

Kd [1]: > 1000 µM
Kd [3]: 0.001 µM
Substance: Neurturin (NTN), species not stated at these places (ligand)
survival of E14 rat spinal motoneurons at 72 hours [2]: 50%
